Assay [1] addresses FUT2-fucosylated E-cadherin (co-expressed with FUT2; with terminal fucosylation) (UniProt P12830). Nature of the assay: atomic force microscopy.
The target in assay [2] is E-cadherin control (expressed without FUT2; without terminal fucosylation) (UniProt P12830). Nature of the assay: atomic force microscopy.

In turn, “FUT2-fucosylated E-cadherin (co-expressed with FUT2; with terminal fucosylation) (from UniProt P12830 23-882) (natural protein)” had a mean maximum adhesion force in assay [1] of 79.8 nN.

In turn, “E-cadherin control (expressed without FUT2; without terminal fucosylation) (from UniProt P12830 23-882) (natural protein)” came in with a mean maximum adhesion force in assay [2] of 63.5 nN.
